We go through 167 variants from the RNAGym collection of RNA variant scans (doi:10.7554/elife.80360).

B1: CPEB3 Ribozyme (parent)
chain: GGGGGCCACAGCAGAAGCGUUCACGUCGCGGCCCCUGUCAGAUUCUGGUGAAUCUGCGAAUUCUGCUGU

The variants in this data set derive from B1. Nature of the data set: self-cleavage, relative activity (ratio to wild type); higher = more cleavage; co-transcriptional.
Take G41U G68A: the self-cleavage stood at 0.931.

G41U G68U: the self-cleavage came out at 0.972.

As to G41U G68C, the self-cleavage worked out at 0.93.

G41U C63U: the self-cleavage was found to be 0.691. The result for G41U A51G reads 0.837. The result for G41U A51U reads 0.609. Next, A42C G58C: 1.04; A42U U49C: 0.915; A42U U49G: 0.957.

As to A42C U43A, the self-cleavage was 0.778. On to A42C U43G, for which the self-cleavage came out at 0.703. Next, U43A U46C: 0.952; U43A U46A: 0.958. The result for U43A U46G reads 0.943; that for A42G G48U, 0.948. Next, A42G G48C: 0.989.

In the case of A42G C63G, the self-cleavage was determined as 0.583.

For A42G C63U, the self-cleavage was found to be 0.889.

On to A42G C63A, for which the self-cleavage amounted to 0.617. With G41A U53G, the self-cleavage stood at 0.566. Next, G41A U53A: 0.65; U43A A60G: 0.683; U43A A60U: 0.29. Next, A42G C45U: 0.927. The result for A42G C45A reads 1.01.

With G41U C45A, the self-cleavage stood at 0.422. The result for G41U C45G reads 0.47; that for A42C C63G, 0.542.

As to A42C C63A, the self-cleavage is 0.547. The result for G41C C66G reads 0.369.

On to A42G U43C, for which the self-cleavage was 0.935.

Regarding A42G U43G, the self-cleavage was found to be 0.565. Next, A42G U43A: 0.853; A42C C57G: 0.342; A42C C57A: 0.398. The result for A42C C57U reads 0.376; that for U43A G50C, 0.91. For the variant U43A G50U, the self-cleavage came to 0.959.

For the variant U43A G50A, the self-cleavage worked out at 0.962. The result for A42G U53G reads 0.801; that for A42G U53A, 0.895. Next, U43A C45U: 1.03; U43A C45A: 0.859. Next, G41C G56A: 0.667; G41C G56U: 0.369; U43A U62G: 0.641.

On to U43A U62A, for which the self-cleavage was 0.587. G41C C57U: the self-cleavage is 0.329. Next, G41C A60U: 0.366; G41C A60G: 0.304. In the case of G41C A60C, the self-cleavage was determined as 0.262. The result for G41C A52C reads 0.332; that for G41C U46A, 0.921; that for G41C U67G, 0.787. Regarding G41C U67A, the self-cleavage was 0.716. The result for A42U A60G reads 0.74; that for A42U A60C, 0.219; that for A42U A60U, 0.436. A42C U69G: the self-cleavage worked out at 1.01. As for A42C U69A, the self-cleavage turned out to be 1.02. Next, A42C U69C: 1.05; U43A C54A: 0.599; U43A C54G: 0.418. The result for A42U U43A reads 0.914.

In the case of G41A U69C, the self-cleavage turned out to be 1.03. As for G41A U69G, the self-cleavage was found to be 1. Next, G41A U69A: 0.912; A42G C57U: 0.356; A42G G47A: 0.955.

As for A42G G47U, the self-cleavage came to 0.988. Turning to A42G U44C, the self-cleavage worked out at 0.562.

Consider A42G U44A, for which the self-cleavage came out at 0.822. For the variant A42G U55C, the self-cleavage is 0.492. The result for A42G U55A reads 0.543. Next, U43A A51G: 0.928; U43A A51U: 0.939. A42C A60U: the self-cleavage was 0.459. Next, U43A G68C: 1.01; U43A G68U: 0.973; A42G C66G: 0.622. For the variant A42G C66A, the self-cleavage amounted to 0.558.

As to A42G C66U, the self-cleavage stood at 0.93.

Turning to A42C G65A, the self-cleavage is 0.627.

G41A G56U: the self-cleavage was 0.307.

Take G41A G56C: the self-cleavage is 0.31. Turning to U43A G48A, the self-cleavage was 1.04. Next, U43A G48U: 0.983; G41C U49A: 0.988. The result for G41C U49C reads 0.871. In the case of A42U G68A, the self-cleavage came out at 0.956. Next, A42U U67G: 0.951; A42U U67A: 0.95; G41C A59C: 0.225. Next, G41C A59G: 0.845; G41C U61G: 0.345. The result for G41C U61C reads 0.241; that for U43A G56U, 0.427; that for U43A G56C, 0.336. With U43A G56A, the self-cleavage turned out to be 0.641. For A42C U53A, the self-cleavage was 1.03. Next, A42C U67C: 0.97; A42C U67A: 0.964; G41A U44G: 0.307. The result for U43A U64A reads 0.591; that for G41U A52C, 0.431.

In the case of G41U A52G, the self-cleavage came out at 0.749.

Regarding A42U U44A, the self-cleavage worked out at 0.898. For the variant U43A C57A, the self-cleavage was found to be 0.271. Take U43A C57U: the self-cleavage was found to be 0.41. Take A42G G50U: the self-cleavage was 0.887. As to G41C A42C, the self-cleavage worked out at 0.26. The result for G41C A42U reads 0.504; that for G41U C66G, 0.428. The result for G41U C66A reads 0.441; that for A42C U46G, 0.929; that for A42U C57U, 0.436. Next, A42U A51C: 0.839; A42U A51U: 0.914; G41A U49G: 0.859.

G41A U49C: the self-cleavage was 0.825.

For U43A, the self-cleavage worked out at 0.953. The result for G41U C54U reads 0.94; that for G41U C54G, 0.95.

Regarding G41U C54A, the self-cleavage was 0.972.

Turning to A42U U69C, the self-cleavage came out at 1.04. The result for A42U U69A reads 1; that for A42C G47A, 0.921. A42U G56U: the self-cleavage came out at 0.517. Next, A42U G56A: 0.799; A42C C54G: 0.73.

G41C U43A: the self-cleavage stood at 0.31. Next, G41C U43G: 0.25; G41C U43C: 0.486. Next, A42C U64A: 0.625; A42C U64G: 0.769. Turning to U43A G47U, the self-cleavage was 0.987. Next, U43A G47A: 0.972; U43A G47C: 0.954. Next, A42U G50C: 0.809; A42U G50U: 0.937; G41U U69G: 1.02. Next, G41U U69A: 0.995.

As to U43A C66A, the self-cleavage is 0.416. As for U43A C66U, the self-cleavage came to 0.831. G41A G50A: the self-cleavage is 0.707. Next, G41A U64G: 0.501; G41A U64C: 0.385.

Turning to G41C A51U, the self-cleavage was 0.542. The result for G41C A51C reads 0.43. The result for G41A U43A reads 0.335; that for G41A U43C, 0.416. For the variant G41U U61A, the self-cleavage was 0.64. G41U U61C: the self-cleavage amounted to 0.402. Next, G41U U61G: 0.314; A42C A51G: 0.852. Next, G41A U67A: 0.756.

With G41A U67G, the self-cleavage amounted to 0.777. The result for G41U G65A reads 0.438; that for G41U G65U, 0.366. Next, A42U U64G: 0.722; A42U U64A: 0.726. Next, G41U U46A: 0.947; G41U U46C: 0.752; G41U U46G: 0.887.

Turning to G41U A59G, the self-cleavage stood at 0.933. Next, G41U A59C: 0.412; A42C C66G: 0.661.
